Where a chain is given by its changes, count along the chain named.
T1: VEGFR-3-Fc (UniProt P35916 25-328)
T1 construct: domain: first three Ig domains; conditioned supernatant of 293T cells; also called VEGFR-3-Fc fusion protein; not shown: Fc fragment of the pIg vector
T1 sequence (looked up): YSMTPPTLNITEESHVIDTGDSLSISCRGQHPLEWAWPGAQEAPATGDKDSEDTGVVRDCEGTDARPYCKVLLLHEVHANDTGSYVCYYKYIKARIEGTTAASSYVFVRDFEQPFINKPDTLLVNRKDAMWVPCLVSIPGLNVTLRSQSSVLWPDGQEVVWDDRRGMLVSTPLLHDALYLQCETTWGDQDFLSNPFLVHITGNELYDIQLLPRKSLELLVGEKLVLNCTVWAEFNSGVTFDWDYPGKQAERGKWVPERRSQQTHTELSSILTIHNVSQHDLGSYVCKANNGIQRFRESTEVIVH

B1: 72-1 (ligand)
chain: GQNHHEVVKSIDNEWRKTQCMPREVCIDVGKEFGVATNTFFKPPCVSVYRCGGCCNDEGLECVPTEESNITMQIMRIKPHQGQHIGEMSFLQHNKCECRPKKD
B2: 72-3 (ligand)
chain: B1 chain with D57S, E61Q
B3: 24-5 (ligand)
chain: AHYNTEILKSIDNEWRKTQCMPREVCIDVGKEFGVATNTFFKPSCVPLMRCGGCCNDEGLECVPTEESNITMQIMRIKPHQGQHIGEMSFANHTSCRCMSKLD
B4: 74-7 (ligand)
chain: B3 chain with A1G, H2Q, Y3N, N4H, T5H, I7V, L8V, D57S, E61Q
B5: 22-5 (ligand)
chain: B3 chain with S44P, P47S, L48V, M49Y
B6: 21-7 (ligand)
chain: B3 chain with F33Y, G34P, V35D, A36E, T37I, N38E, T39Y, F40I, D57S, E61Q
B7: 23-5 (ligand)
chain: AHYNTEILKSIDNEWRKTQCMPREVCIDVGKEYPDEIEYIFKPPCVSVYRCGGCCNDEGLECVPTEESNITMQIMRIKPHQGQHIGEMSFANHTSCRCMSKLD
B8: 74-5 (ligand)
chain: B3 chain with A1G, H2Q, Y3N, N4H, T5H, I7V, L8V
B9: 52-5 (ligand)
chain: AHYNTEILKSIDNEWRKTQCMPIETLVDIFQEFGVATNTFFKPPCVSVYRCGGCCNDEGLECVPTEESNITMQIMRIKPHQGQHIGEMSFANHTSCRCMSKLD
B10: 24-3 (ligand)
chain: B3 chain with D57S, E61Q, A91L, N92Q, T94N, S95K, R97E, M99R, S100P, L102K
B11: 54-7 (ligand)
chain: B9 chain with P44S, S47P, V48L, Y49M, D57S, E61Q
B12: 24-1 (ligand)
chain: B3 chain with A91L, N92Q, T94N, S95K, R97E, M99R, S100P, L102K
B13: 54-5 (ligand)
chain: B9 chain with P44S, S47P, V48L, Y49M
B14: 22-7 (ligand)
chain: B3 chain with S44P, P47S, L48V, M49Y, D57S, E61Q
B15: 72-5 (ligand)
chain: B1 chain with L91A, Q92N, N94T, K95S, E97R, R99M, P100S, K102L
B16: 24-7 (ligand)
chain: B3 chain with D57S, E61Q
B17: 21-5 (ligand)
chain: B7 chain with P44S, S47P, V48L, Y49M
B18: 84-7 (ligand)
chain: AHYNTEILKFMDVYQRSYCHPIETLVDIFQEFGVATNTFFKPSCVPLMRCGGCCNSEGLQCVPTEESNITMQIMRIKPHQGQHIGEMSFANHTSCRCMSKLD
B19: 13-1 (ligand)
chain: GQNHHEVVKFMDVYQRSYCHPIETLVDIFQEYPDEIEYIFKPPCVSVYRCGGCCNDEGLECVPTEESNITMQIMRIKPHQGQHIGEMSFLQHNKCECRPKKD
B20: 13-5 (ligand)
chain: B19 chain with L90A, Q91N, N93T, K94S, E96R, R98M, P99S, K101L
B21: 13-7 (ligand)
chain: B19 chain with D56S, E60Q, L90A, Q91N, N93T, K94S, E96R, R98M, P99S, K101L
B22: 31-1 (ligand)
chain: GQNHHEVVKSIDNEWRKTQCMPIETLVDIFQEYPDEIEYIFKPSCVPLMRCGGCCNDEGLECVPTEESNITMQIMRIKPHQGQHIGEMSFLQHNKCECRPKKD
B23: 22-13 (ligand)
chain: AHYNTEILKSIDNEWRKTQCMPREVCIDVGKEFGVATNTFFKPPCVSVYRCGGCCNDEGLECVPTEESNITMQIMRITVPLSQGPKPVTISFANHTSCRCMSKLD
B24: 22-15 (ligand)
chain: B23 chain with D57S, E61Q
B25: 81-15 (ligand)
chain: AHYNTEILKFMDVYQRSYCHPIETLVDIFQEYPDEIEYIFKPSCVPLMRCGGCCNSEGLQCVPTEESNITMQIMRITVPLSQGPKPVTISFANHTSCRCMSKLD
B26: 14-1 (ligand)
chain: GQNHHEVVKFMDVYQRSYCHPIETLVDIFQEFGVATNTFFKPSCVPLMRCGGCCNDEGLECVPTEESNITMQIMRIKPHQGQHIGEMSFLQHNKCECRPKKD
B27: 14-5 (ligand)
chain: B26 chain with L90A, Q91N, N93T, K94S, E96R, R98M, P99S, K101L
B28: 14-3 (ligand)
chain: B26 chain with D56S, E60Q
B29: 14-7 (ligand)
chain: B18 chain with A1G, H2Q, Y3N, N4H, T5H, I7V, L8V
B30: 13-9 (ligand)
chain: GQNHHEVVKFMDVYQRSYCHPIETLVDIFQEYPDEIEYIFKPPCVSVYRCGGCCNDEGLECVPTEESNITMQIMRITVPLSQGPKPVTISFLQHNKCECRPKKD
B31: 13-11 (ligand)
chain: B30 chain with D56S, E60Q

Target: T2, VEGFR-2-Fc (UniProt P35968 20-322)
T2 construct: domain: first 3 Ig domains; conditioned supernatant of 293T cells; also called VEGFR-2-Fc fusion protein; not shown: Fc fragment of the pIg vector
T2 sequence (P35968 20-322): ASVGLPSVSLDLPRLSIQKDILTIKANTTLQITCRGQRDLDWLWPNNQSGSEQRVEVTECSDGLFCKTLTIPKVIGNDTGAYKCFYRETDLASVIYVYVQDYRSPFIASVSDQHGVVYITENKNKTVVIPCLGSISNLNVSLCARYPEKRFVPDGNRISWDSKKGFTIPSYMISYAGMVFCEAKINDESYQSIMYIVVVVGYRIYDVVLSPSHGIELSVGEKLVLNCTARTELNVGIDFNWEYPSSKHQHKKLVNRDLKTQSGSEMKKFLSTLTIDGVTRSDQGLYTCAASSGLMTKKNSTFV
Test: receptor-Fc IP
Method in brief: (§1)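 Binding of ligand from sample supernatant measured by pentahistidine-antibody immunoprecipitation. IP mix: PBS with 1.5% BSA, 0.06% Tween 20, 3 μg/ml heparin and 400 ng/ml fusion protein, added 1:2 to sample supernatant.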

| binding result | Binder |
| --- | --- |
| no binding | B1 |
| no binding | B2 |
| no binding | B3 |
| no binding | B4 |
| no binding | B5 |
| no binding | B6 |
| no binding | B7 |
| no binding | B8 |
| no binding | B9 |
| no binding | B10 |
| no binding | B11 |
| no binding | B12 |
| no binding | B13 |
| no binding | B14 |
| no binding | B15 |
| no binding | B16 |

| binding result | Binder |
| --- | --- |
| no binding | B17 |
| no binding | B18 |
| binds | B19 |
| binds | B20 |
| binds | B21 |
| no binding | B22 |
| no binding | B23 |
| no binding | B24 |
| binds | B25 |
| no binding | B26 |
| no binding | B27 |
| binds | B28 |
| binds | B29 |
| no binding | B30 |
| no binding | B31 |

Target: T3, VEGFR-1-Fc (UniProt P17948 27-338)
T3 construct: domain: first three Ig domains; expressed in Drosophila S2 cells, purified on Protein A sepharose; also called VEGFR-1-Fc fusion protein; not shown: Fc fragment from the Signal-pIgPlus vector
T3 sequence (P17948 27-338): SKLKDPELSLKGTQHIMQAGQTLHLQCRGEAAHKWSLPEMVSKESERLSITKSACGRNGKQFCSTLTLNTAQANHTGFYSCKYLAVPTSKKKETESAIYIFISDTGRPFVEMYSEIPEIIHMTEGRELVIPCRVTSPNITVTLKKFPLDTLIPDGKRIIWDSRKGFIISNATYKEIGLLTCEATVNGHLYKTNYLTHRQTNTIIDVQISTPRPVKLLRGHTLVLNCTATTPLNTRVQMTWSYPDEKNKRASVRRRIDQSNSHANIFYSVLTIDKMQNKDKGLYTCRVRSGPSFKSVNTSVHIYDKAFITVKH
Test: receptor-Fc IP
Method in brief: as §1

| binding result | Binder |
| --- | --- |
| no binding | B1 |
| no binding | B2 |
| no binding | B3 |
| no binding | B4 |
| no binding | B5 |
| no binding | B6 |
| no binding | B7 |
| no binding | B8 |
| no binding | B9 |
| no binding | B10 |
| no binding | B11 |
| no binding | B12 |
| no binding | B13 |
| no binding | B14 |
| no binding | B15 |
| no binding | B16 |

| binding result | Binder |
| --- | --- |
| no binding | B17 |
| no binding | B18 |
| binds | B19 |
| binds | B20 |
| binds | B21 |
| no binding | B22 |
| no binding | B23 |
| no binding | B24 |
| binds | B25 |
| binds | B26 |
| binds | B27 |
| binds | B28 |
| no binding | B29 |
| binds | B30 |
| binds | B31 |

Target: T1, VEGFR-3-Fc
Test: receptor-Fc IP
Method in brief: as §1

| binding result | Binder |
| --- | --- |
| no binding | B1 |
| no binding | B2 |
| no binding | B3 |
| no binding | B4 |
| no binding | B5 |
| no binding | B6 |
| no binding | B7 |
| no binding | B8 |
| no binding | B9 |
| no binding | B10 |
| no binding | B11 |
| no binding | B12 |
| no binding | B13 |
| no binding | B14 |
| no binding | B15 |
| no binding | B16 |

| binding result | Binder |
| --- | --- |
| no binding | B17 |
| no binding | B18 |
| no binding | B19 |
| no binding | B20 |
| no binding | B21 |
| no binding | B22 |
| no binding | B23 |
| no binding | B24 |
| no binding | B25 |
| no binding | B26 |
| no binding | B27 |
| no binding | B28 |
| no binding | B29 |
| no binding | B30 |
| no binding | B31 |

— US20080058263A1 (published 2008)
